This note sets out measurements from paper PMC4572887, “GnT1IP-L specifically inhibits MGAT1 in the Golgi via its luminal domain” (eLife, 2015).

Series [1] concerns the molecule itself. The series can be described thus: FRET or BRET; COS-7 cells stably expressing GnT1IP-L-mVen, co-transfected with GnT1IP-L-mChe and MGAT1-HA as competitor, with or without 40 µM chloroquine for 4 or 16 hr; FRET efficiency by acceptor bleaching. A general note: BRET reads energy transfer from a luciferase to a nearby fluorophore.
Series [2] deals with the molecule itself. The series can be described thus: FRET or BRET; acceptor-bleaching FRET microscopy on fixed cells, mVen donor and mChe acceptor; COS-7 cells stably expressing GnT1IP-L-mVen, transiently transfected with the mChe-tagged partner; untreated controls, recovery 4 hr after removal of nocodazole, and 40 µM chloroquine for 4 or 16 hr.
For the next series, the target named is T1, human MGAT1-mChe (human, UniProt P26572 1-445).
T1 construct: N-acetylglucosaminyltransferase MGAT1, human, full-length cDNA clone; also called GlcNAc-TI; GnT-1; source: COS-7 or Lec1 CHO cells, transiently transfected; in cells; not shown: monomeric mCherry (mChe), C-terminal, kept
T1 sequence (looked up): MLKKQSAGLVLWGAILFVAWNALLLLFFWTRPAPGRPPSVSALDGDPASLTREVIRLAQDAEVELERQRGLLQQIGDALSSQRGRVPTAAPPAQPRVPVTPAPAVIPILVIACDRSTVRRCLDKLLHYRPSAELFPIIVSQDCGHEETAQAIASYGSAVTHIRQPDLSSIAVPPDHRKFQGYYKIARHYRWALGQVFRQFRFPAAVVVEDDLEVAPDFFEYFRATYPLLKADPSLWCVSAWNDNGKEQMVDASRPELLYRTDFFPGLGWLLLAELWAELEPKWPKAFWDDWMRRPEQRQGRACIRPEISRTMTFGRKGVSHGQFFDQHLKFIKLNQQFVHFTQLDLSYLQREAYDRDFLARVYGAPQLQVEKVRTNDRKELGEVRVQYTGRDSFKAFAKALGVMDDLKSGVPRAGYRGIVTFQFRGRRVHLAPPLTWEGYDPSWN
The series is described as above. Particulars: partners not purified.

B1: Mouse GnT1IP-L-mVen (natural protein, UniProt Q9D4R2-2 1-417, looked up)
chain: MCLGESVGDLRTVATAPWEGEQARGVKDAGSVPVQPGVGSDAATMKAKNVNLLFAFVAVLLFGFSCFCISRMNQTNNQLINCRNHVLEFKEIMLRLKNKSENHHQDLMQVLYQMKRKAAHTTRSSGNFLEKKGSILSQHETLPNQFEVLKYFLPHLRTAGKLYPAIATSKGRAGVSFALGISTINRGNHTYLKQTLTSVLSRMTPEEEEDSVVIVSVADTDESYLKSVVRMVKTKFRKQVQSGVLEVISIPTLFYPQTLLDKKTKTDSESWQIKQVLDFCILMLYAQPKATYYLQLEDDIVAKKMYFTKMKDFVNSLTSKNWFFIEFSVLGFIGKLFRSKDLTDFVHFFLMFYETKPIDILLDDIFLIRVCISGEPVRSCLQRKKGFRIQYRPSLFQHVGTQSSFPGREQHLKDNYY
notes: GnT1IP-L, mouse, the long form of 417 aa (GnT1IP-S with 44 additional N-terminal amino acids), GenBank HM067443; In the homomer FRET experiments the second copy carried C-terminal monomeric mCherry (GnT1IP-L-mChe) instead of mVen; it is written as the same molecule; also called MGAT4D (long form); source: COS-7 or Lec1 CHO cells stably expressing it, or COS-7 cells transiently transfected; in …
Regarding B1, the “fold increase of homomer FRET with chloroquine, MGAT1-HA co-expressed as competitor” value in series [1] is around 2 fold. The “FRET efficiency (untreated control)” value in series [2] came out at 32%; in the series with human MGAT1-mChe, 38%.
